Values joined by “and” are separate entries in the source; they are usually repeats but may differ in a detail not shown here. Equal entries are not always repeated.
Tests used:
[1] = target: RDC-1 (NEOKINE receptor), transiently expressed in 293 cells; experiment: 125I-T112 at 0.1 nm on 293 cells transiently transfected with RDC-1, no competitor
[2] = target: RDC-1 (NEOKINE receptor), transiently expressed in 293 cells; experiment: competition: bound 125I-T112 on RDC-1-transfected 293 cells with unlabelled T112 at 3.0 nm

Substance	cpm bound in cell pellets [1]	cpm bound in cell pellets [2]
125I-T112 (radioiodinated NEOKINE) (ligand)	37600 cpm and 27000 cpm	–
T112 (NEOKINE), unlabelled (ligand)	–	8340 cpm and 9230 cpm

Reference: patent US20110306044A1
